Here are results for 6 molecules from patent US20180155451A1 (published 2018).

Test [1] addresses T1, FcγRIIIa extracellular domain with C-terminal His tag (human, UniProt P08637 17-208).
T1 construct: extracellular domain; Soluble receptor expressed in FreeStyle293 cells, used as analyte in Biacore; also called FcgRIIIa; 3a; not shown: His tag attached to the C terminus
Description: SPR (Biacore); ratio of He/Con_3a (FcγRIIIa) to He/Con_2b (FcγRIIb). The gist of the method: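 SPR, 25 °C, HBS-EP+. Ab captured via immobilized antigen peptide (CM5 amine coupling or SA biotin); FcγR injected as analyte. Regen: 10 mM glycine-HCl pH 1.5.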
For orientation: Surface plasmon resonance follows binding to a sensor surface in real time, without labels.
T1 sequence (P08637 17-208): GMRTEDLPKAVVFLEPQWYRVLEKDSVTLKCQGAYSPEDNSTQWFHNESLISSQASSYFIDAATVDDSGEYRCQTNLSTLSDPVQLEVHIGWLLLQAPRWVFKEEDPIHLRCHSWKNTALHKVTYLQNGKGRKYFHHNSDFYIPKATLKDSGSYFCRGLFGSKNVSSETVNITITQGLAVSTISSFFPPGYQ

The target in test [2] is T2, FcγRIIb extracellular domain with C-terminal His tag (human, UniProt P31994 43-217).
T2 construct: extracellular domain; Soluble receptor expressed in FreeStyle293 cells, used as analyte in Biacore; also called FcgRIIb; 2b; not shown: His tag attached to the C terminus
T2 sequence (looked up): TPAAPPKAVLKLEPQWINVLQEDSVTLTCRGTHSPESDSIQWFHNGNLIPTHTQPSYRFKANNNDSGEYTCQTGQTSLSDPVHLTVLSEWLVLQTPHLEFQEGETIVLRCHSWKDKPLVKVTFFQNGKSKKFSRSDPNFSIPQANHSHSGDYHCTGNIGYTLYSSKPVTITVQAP
The experiment in a line: SPR (Biacore), antibody captured via antigen peptide, FcγR as analyte; binding amount relative to control heterodimerized antibody. The procedure:
(§1) The heterodimerized antibodies He Abs in which one of the H chains was introduced with an alteration were assayed for their binding activities to each activating FcγR and inhibitory FcγR according to the method described in Example 4. […] The activating FcγRs in FIGS. 26, 27, 28, and 29 are FcγRIa, FcγRIIa (R), FcγRIIa (H), and FcγRIIIa, respectively.
(§2) Analysis of interaction between objective antibody and the FcγR was carried out using Biacore T100 (GE Healthcare). HBS-EP+ (GE Healthcare) was used as the running buffer, and the measurement temperature was set to 25° C. Chips produced by immobilizing the antigen peptide by the amine coupling method to a Series S Sencor Chip CM5 (GE Healthcare), or alternatively, chips produced by allowing preliminarily biotinylated antigen peptides to interact with and immobilize onto a Series S Sensor Chip SA (certified) (GE Healthcare) were used. Antibodies of interest were captured onto an antigen peptide-immobilized chip, and allowed to interact to each FcγR diluted with running buffer. To regenerate and repeatedly use the chip, the antibodies captured on the chip were washed off by reacting 10 mM glycine-HCl, pH 1.5.

Test [3] addresses T1, FcγRIIIa extracellular domain with …. The test is described as above. On the procedure:
as §1, §2

Test [4] addresses T3, FcγRIIb extracellular domain with C-terminal His tag (human, UniProt P31994 43-217).
T3 construct: extracellular domain; Expressed in FreeStyle293 cells and used as the analyte in Biacore; also called FcgRIIb; 2b; not shown: His tag attached to the C terminus
T3 sequence (looked up): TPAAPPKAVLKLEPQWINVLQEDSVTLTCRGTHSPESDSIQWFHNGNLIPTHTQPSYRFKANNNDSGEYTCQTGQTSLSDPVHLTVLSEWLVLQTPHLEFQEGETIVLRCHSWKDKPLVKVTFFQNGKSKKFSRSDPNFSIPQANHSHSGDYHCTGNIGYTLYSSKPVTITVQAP
The experiment in a line: SPR (Biacore), antibody captured on antigen peptide chip, FcγR as analyte; bound amount against control heterodimerized antibody. The procedure: as §2
(§3) The FcγR-binding activity of each antibody was assessed primarily using as an indicator the FcγR-binding activity and dissociation constant for FcγR.

Test [5] concerns the target T4, FcγRIIIa extracellular domain with C-terminal His tag (human, UniProt P08637 17-208).
T4 construct: extracellular domain; also called FcgRIIIa; 3a; not shown: His tag attached to the C terminus
Described as above. On the procedure: as §2, §3
T4 sequence (P08637 17-208): as the sequence (P08637 17-208) above

Test [6] concerns the target T4, FcγRIIIa extracellular domain with …. Description: SPR (Biacore); relative FcγRIIIa binding divided by relative FcγRIIb binding of the same antibody. The procedure:
as §2, §3

B1: GpH7-A5/GpH7-B3 variant I336_02A/GpL16-k0 (heterodimerized antibody, He Ab) (antibody, human IgG1, kappa)
heavy 1: not shown
heavy 2: not shown
light: DIVMTQSPLSLPVTPGEPASISCQASESLVHSNRNTYLHWYLQKPGQSPQLLIYKVSNRFSGVPDRFSGSGSGTDFTLKISRVEAEDVGVYYCSQNTHVPPTFGQGTKVEIERTVAAPSVFIFPPSDEQLKSGTASVVCLLNNFYPREAKVQWKVDNALQSGNSQESVTEQDSKDSTYSLSSTLTLSKADYEKHKVYACEVTHQGLSSPVTKSFNRGEC
notes: Anti-glypican-3 IgG1 heterodimerized antibody; the alteration stands only in the GpH7-B3 chain; Positions in EU numbering; also called I336A
As to B1, the “IIIa/IIb (He_3a/2b)” value in test [1] worked out at 1.31 ratio. In addition, the “He/Con_2b (IIb binding)” value in test [2] is 84.9 relative binding, GpH7-A5/GpH7-B3/GpL16-k0 = 100. In test [3], the “He/Con_3a (IIIa binding)” value was 111 relative binding, GpH7-A5/GpH7-B3/GpL16-k0 = 100.

B2: GpH7-A5/GpH7-B3 variant K334_10E/GpL16-k0 (heterodimerized antibody, He Ab) (antibody, human IgG1, kappa)
heavy 1: not shown
heavy 2: not shown
light: DIVMTQSPLSLPVTPGEPASISCQASESLVHSNRNTYLHWYLQKPGQSPQLLIYKVSNRFSGVPDRFSGSGSGTDFTLKISRVEAEDVGVYYCSQNTHVPPTFGQGTKVEIERTVAAPSVFIFPPSDEQLKSGTASVVCLLNNFYPREAKVQWKVDNALQSGNSQESVTEQDSKDSTYSLSSTLTLSKADYEKHKVYACEVTHQGLSSPVTKSFNRGEC
notes: Anti-glypican-3 IgG1 heterodimerized antibody; the alteration stands only in the GpH7-B3 chain (K439E); GpH7-A5 carries D356K/H435R; Positions in EU numbering; also called K334E
For the molecule B2, the “IIIa/IIb (He_3a/2b)” value in test [1] turned out to be 1.58 ratio. The “He/Con_2b (IIb binding)” value in test [2] is 114 relative binding, GpH7-A5/GpH7-B3/GpL16-k0 = 100. The “He/Con_3a (IIIa binding)” value in test [3] was 181 relative binding, GpH7-A5/GpH7-B3/GpL16-k0 = 100.

B3: GpH7-A5/GpH7-B3 variant I336_10E/GpL16-k0 (heterodimerized antibody, He Ab) (antibody, human IgG1, kappa)
heavy 1: not shown
heavy 2: not shown
light: DIVMTQSPLSLPVTPGEPASISCQASESLVHSNRNTYLHWYLQKPGQSPQLLIYKVSNRFSGVPDRFSGSGSGTDFTLKISRVEAEDVGVYYCSQNTHVPPTFGQGTKVEIERTVAAPSVFIFPPSDEQLKSGTASVVCLLNNFYPREAKVQWKVDNALQSGNSQESVTEQDSKDSTYSLSSTLTLSKADYEKHKVYACEVTHQGLSSPVTKSFNRGEC
notes: Anti-glypican-3 IgG1 heterodimerized antibody; the alteration stands only in the GpH7-B3 chain; Positions in EU numbering; also called I336E
In the case of B3, the “IIIa/IIb (He_3a/2b)” value in test [1] came to 1.33 ratio. For the same molecule, the “He/Con_2b (IIb binding)” value in test [2] is 89.8 relative binding, GpH7-A5/GpH7-B3/GpL16-k0 = 100. In addition, the “He/Con_3a (IIIa binding)” value in test [3] is 119 relative binding, GpH7-A5/GpH7-B3/GpL16-k0 = 100.

B4: GpH7-A5/GpH7-B3 variant S267_15Y/GpL16-k0 (He Ab) (antibody, human IgG1, kappa)
heavy 1: not shown
heavy 2: not shown
light: DIVMTQSPLSLPVTPGEPASISCQASESLVHSNRNTYLHWYLQKPGQSPQLLIYKVSNRFSGVPDRFSGSGSGTDFTLKISRVEAEDVGVYYCSQNTHVPPTFGQGTKVEIERTVAAPSVFIFPPSDEQLKSGTASVVCLLNNFYPREAKVQWKVDNALQSGNSQESVTEQDSKDSTYSLSSTLTLSKADYEKHKVYACEVTHQGLSSPVTKSFNRGEC
notes: Anti-glypican-3 heterodimerized IgG1 antibody; the mutation stands in only one H chain (the GpH7-B3 chain); also called S267Y in one H chain
B4: in test [4], the “He/Con_2b (IIb binding)” value is 37.9 relative binding activity, GpH7-A5/GpH7-B3/GpL16-k0 = 100. The “He/Con_3a (IIIa binding)” value in test [5] is 11.8 relative binding activity, GpH7-A5/GpH7-B3/GpL16-k0 = 100. Also, the “He_3a/2b (IIIa/IIb)” value in test [6] is 0.31 ratio of He/Con_3a to He/Con_2b.

B5: GpH7-A5/GpH7-B3 variant S267_20W/GpL16-k0 (He Ab) (antibody, human IgG1, kappa)
heavy 1: not shown
heavy 2: not shown
light: DIVMTQSPLSLPVTPGEPASISCQASESLVHSNRNTYLHWYLQKPGQSPQLLIYKVSNRFSGVPDRFSGSGSGTDFTLKISRVEAEDVGVYYCSQNTHVPPTFGQGTKVEIERTVAAPSVFIFPPSDEQLKSGTASVVCLLNNFYPREAKVQWKVDNALQSGNSQESVTEQDSKDSTYSLSSTLTLSKADYEKHKVYACEVTHQGLSSPVTKSFNRGEC
notes: Anti-glypican-3 heterodimerized IgG1 antibody; the mutation stands in only one H chain (the GpH7-B3 chain); also called S267W in one H chain
As to B5, in test [4], the “He/Con_2b (IIb binding)” value is 57.2 relative binding activity, GpH7-A5/GpH7-B3/GpL16-k0 = 100. For the same molecule, in test [5], the “He/Con_3a (IIIa binding)” value is 21.5 relative binding activity, GpH7-A5/GpH7-B3/GpL16-k0 = 100. In addition, the “He_3a/2b (IIIa/IIb)” value in test [6] was 0.37 ratio of He/Con_3a to He/Con_2b.

B6: GpH7-A5/GpH7-B3 variant I336_14T/GpL16-k0 (heterodimerized antibody, He Ab) (antibody, human IgG1, kappa)
heavy 1: not shown
heavy 2: not shown
light: DIVMTQSPLSLPVTPGEPASISCQASESLVHSNRNTYLHWYLQKPGQSPQLLIYKVSNRFSGVPDRFSGSGSGTDFTLKISRVEAEDVGVYYCSQNTHVPPTFGQGTKVEIERTVAAPSVFIFPPSDEQLKSGTASVVCLLNNFYPREAKVQWKVDNALQSGNSQESVTEQDSKDSTYSLSSTLTLSKADYEKHKVYACEVTHQGLSSPVTKSFNRGEC
notes: Anti-glypican-3 IgG1 heterodimerized antibody; the alteration stands only in the GpH7-B3 chain; Positions in EU numbering; also called I336T
Take B6: the “IIIa/IIb (He_3a/2b)” value in test [1] stood at 1.21 ratio. In addition, the “He/Con_2b (IIb binding)” value in test [2] was 89.5 relative binding, GpH7-A5/GpH7-B3/GpL16-k0 = 100. The “He/Con_3a (IIIa binding)” value in test [3] was 108 relative binding, GpH7-A5/GpH7-B3/GpL16-k0 = 100.
